Data published in ChEMBL document CHEMBL1137666, “Biochemical Characterization of SFC-1, a class A carbapenem-hydrolyzing beta-lactamase” (Antimicrob Agents Chemother, 2007).

Key:
[1] = target: Carbapenem-hydrolyzing beta-lactamase KPC (Klebsiella pneumoniae, UniProt Q9F663); test: Inhibition of Klebsiella pneumoniae KPC-1 beta lactamase expressed in Escherichia coli DH5alpha by SDS-PAGE
[2] = substrate: C[C@@H](O)[C@H]1C(=O)N2C(C(=O)O)=C(S[C@@H]3CN[C@H](C(=O)N(C)C)C3)[C@H](C)[C@H]12; conditions: Enterobacter cloacae
Description: (§1) Ratio of Kcat to Km for Enterobacter cloacae IMI1 beta lactamase Escherichia coli DH5alpha by SDS-PAGE

[3] = substrate: CC(C)(O/N=C(\C(=O)N[C@@H]1C(=O)N2C(C(=O)[O-])=C(C[n+]3ccccc3)CS[C@H]12)c1csc(N)n1)C(=O)O; conditions: Enterobacter cloacae
Description: as §1

[4] = substrate: CO[C@@]1(NC(=O)Cc2cccs2)C(=O)N2C(C(=O)O)=C(COC(N)=O)CS[C@@H]21; conditions: Enterobacter cloacae
Description: as §1

[5] = substrate: CCN1CCN(C(=O)N[C@@H](C(=O)N[C@@H]2C(=O)N3[C@@H]2SC(C)(C)[C@@H]3C(=O)O)c2ccccc2)C(=O)C1=O; conditions: Enterobacter cloacae
Description: as §1

[6] = substrate: CO/N=C(\C(=O)N[C@@H]1C(=O)N2C(C(=O)O)=C(COC(C)=O)CS[C@H]12)c1csc(N)n1; conditions: Enterobacter cloacae
Description: as §1

[7] = substrate: CC(=O)OCC1=C(C(=O)O)N2C(=O)[C@@H](NC(=O)Cc3cccs3)[C@H]2SC1; conditions: Enterobacter cloacae
Description: as §1

[8] = substrate: C[C@@H](O)[C@H]1C(=O)N2C(C(=O)O)=C(SCCNC=N)C[C@H]12; conditions: Enterobacter cloacae
Description: as §1

[9] = substrate: C[C@H]1[C@H](NC(=O)/C(=N\OC(C)(C)C(=O)O)c2csc(N)n2)C(=O)N1S(=O)(=O)O; conditions: Enterobacter cloacae
Description: as §1

[10] = substrate: CC1(C)S[C@@H]2[C@H](NC(=O)[C@H](N)c3ccccc3)C(=O)N2[C@H]1C(=O)O; conditions: Enterobacter cloacae
Description: as §1

[11] = substrate: C[C@@H](O)[C@H]1C(=O)N2C(C(=O)O)=C(S[C@@H]3CN[C@H](C(=O)N(C)C)C3)[C@H](C)[C@H]12; conditions: Enterobacter cloacae; remark: listed apart in the source
Description: (§2) Activity of Enterobacter cloacae IMI1 beta lactamase expressed in Escherichia coli DH5alpha by SDS-PAGE

[12] = substrate: CC(C)(O/N=C(\C(=O)N[C@@H]1C(=O)N2C(C(=O)[O-])=C(C[n+]3ccccc3)CS[C@H]12)c1csc(N)n1)C(=O)O; conditions: Enterobacter cloacae; remark: listed apart in the source
Description: as §2

[13] = substrate: CO[C@@]1(NC(=O)Cc2cccs2)C(=O)N2C(C(=O)O)=C(COC(N)=O)CS[C@@H]21; conditions: Enterobacter cloacae; remark: listed apart in the source
Description: as §2

[14] = substrate: CCN1CCN(C(=O)N[C@@H](C(=O)N[C@@H]2C(=O)N3[C@@H]2SC(C)(C)[C@@H]3C(=O)O)c2ccccc2)C(=O)C1=O; conditions: Enterobacter cloacae; remark: listed apart in the source
Description: as §2

[15] = substrate: CO/N=C(\C(=O)N[C@@H]1C(=O)N2C(C(=O)O)=C(COC(C)=O)CS[C@H]12)c1csc(N)n1; conditions: Enterobacter cloacae; remark: listed apart in the source
Description: as §2

[16] = substrate: CC(=O)OCC1=C(C(=O)O)N2C(=O)[C@@H](NC(=O)Cc3cccs3)[C@H]2SC1; conditions: Enterobacter cloacae; remark: listed apart in the source
Description: as §2

[17] = substrate: C[C@@H](O)[C@H]1C(=O)N2C(C(=O)O)=C(SCCNC=N)C[C@H]12; conditions: Enterobacter cloacae; remark: listed apart in the source
Description: as §2

[18] = substrate: C[C@H]1[C@H](NC(=O)/C(=N\OC(C)(C)C(=O)O)c2csc(N)n2)C(=O)N1S(=O)(=O)O; conditions: Enterobacter cloacae; remark: listed apart in the source
Description: as §2

[19] = substrate: CC1(C)S[C@@H]2[C@H](NC(=O)[C@H](N)c3ccccc3)C(=O)N2[C@H]1C(=O)O; conditions: Enterobacter cloacae; remark: listed apart in the source
Description: as §2

Chain of Carbapenem-hydrolyzing beta-lactamase KPC (Q9F663 whole entry): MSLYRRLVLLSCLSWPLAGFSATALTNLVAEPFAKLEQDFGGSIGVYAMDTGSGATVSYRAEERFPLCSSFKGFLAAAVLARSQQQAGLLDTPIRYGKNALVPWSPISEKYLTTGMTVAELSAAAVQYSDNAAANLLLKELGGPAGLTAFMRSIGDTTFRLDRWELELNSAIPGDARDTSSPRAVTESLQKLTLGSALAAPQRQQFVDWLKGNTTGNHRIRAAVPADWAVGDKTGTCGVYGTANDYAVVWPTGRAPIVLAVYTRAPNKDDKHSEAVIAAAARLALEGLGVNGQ

C[C@]1(Cn2ccnn2)[C@H](C(=O)O)N2C(=O)C[C@H]2S1(=O)=O [TAZOBACTAM]
IC50 [1]: 0.374 µM

B1: IMI-1 (Enterobacter cloacae), Q46991 (protein)
chain: MSLNVKPSRIAILFSSCLVSISFFSQANTKGIDEIKDLETDFNGRIGVYALDTGSGKSFSYKANERFPLCSSFKGFLAAAVLKGSQDNQLNLNQIVNYNTRSLEFHSPITTKYKDNGMSLGDMAAAALQYSDNGATNIILERYIGGPEGMTKFMRSIGDKDFRLDRWELDLNTAIPGDERDTSTPAAVAKSLKTLALGNILNEREKETYQTWLKGNTTGAARIRASVPSDWVVGDKTGSCGAYGTANDYAVVWPKNRAPLIISVYTTKNEKEAKHEDKVIAEASRIAIDNLK
kcat/Km [2]: 380000 M⁻¹ s⁻¹ | kcat/Km [3]: 24 M⁻¹ s⁻¹ | kcat/Km [4]: 6700 M⁻¹ s⁻¹ | kcat/Km [5]: 470000 M⁻¹ s⁻¹ | kcat/Km [6]: 18000 M⁻¹ s⁻¹ | kcat/Km [7]: 920000 M⁻¹ s⁻¹ | kcat/Km [8]: 520000 M⁻¹ s⁻¹ | kcat/Km [9]: 550000 M⁻¹ s⁻¹ | kcat/Km [10]: 240000 M⁻¹ s⁻¹ | Km [11]: 26 µM | kcat [11]: 10 s⁻¹ | Km [12]: 270 µM | kcat [12]: 0.0068 s⁻¹ | Km [13]: 45 µM | kcat [13]: 0.3 s⁻¹ | Km [14]: 13 µM | kcat [14]: 6.1 s⁻¹ | Km [15]: 190 µM | kcat [15]: 3.4 s⁻¹ | Km [16]: 130 µM | kcat [16]: 120 s⁻¹ | Km [17]: 170 µM | kcat [17]: 89 s⁻¹ | Km [18]: 93 µM | kcat [18]: 51 s⁻¹ | Km [19]: 780 µM | kcat [19]: 190 s⁻¹
